The values that follow come from patent US20170020909A1, “METHODS OF TREATING GLAUCOMA USING AMP-ACTIVATED PROTEIN KINASE (AMPK) ACTIVATORS” (Massachusetts Eye and Ear Infirmary, priority 2014, published 2017).

In the assay the test system is AMPKα. Briefly: Time course immunoblot of p-AMPKα (Thr172)/total AMPKα in primary human TM cell lysates. In kind it is cell-based. How it is done: Primary human trabecular meshwork (TM) cells were isolated, in accordance with the Declaration of Helsinki, and maintained in culture as described previously.^63 Independent primary human TM cell lines were generated from donors ranging in age from 35 to 72 years and no known history of ocular disease. Cell cultures were maintained, unless otherwise stated, in Dulbecco's modified eagle medium (Life Technologies, Grand Island, N.Y.) containing 20% fetal bovine serum, 1% L-glutamine (2 mM), and gentamicin (0.1 mg/ml) at 37° C. in a 10% CO2 atmosphere. Only TM cells from third through fifth passage were used. All experiments were performed using at least three different primary human TM cell lines.
At the conclusion of each experiment for matricellular and ECM protein detection, conditioned media (CM) from TM cell cultures was harvested and centrifuged at 5000 rpm for 10 minutes at 4° C. The supernatant was then concentrated (Amicon Ultra-4 Filter Unit, 10 kDa; Millipore, Milford, Mass.), and protein content quantified using the DC Protein Assay kit adhering to manufacturer's protocols (Bio-Rad, Hercules, Calif.). For AMPK protein detection, cells were lysed for 3 minutes on ice with cold 1×RIPA buffer containing 0.5% Aprotinin, 0.1% EDTA, 1% EGTA, 0.5% PMSF, and 0.01% Leupeptin. Samples were then centrifuged at 14,000 rpm for 15 minutes at 4° C. and protein content quantified. In all experiments, equal amounts of protein were treated with 6× reducing buffer and boiled for 5 minutes. Samples were then electrophoresed in 10% SDS-polyacrylamide gels, alongside a pre-stained protein marker (Cell Signaling Technology Inc., Danvers, Ma). For conditioned media loading control, the resultant gels were stained with 0.1% Coomassie Brilliant Blue G-250 (Bio-Rad, Hercules Calif.) for 3 hours and were destained with fixing/destaining solution until clear bands were visible and contrasted well with the true blue background. Otherwise, proteins were transferred to nitrocellulose membranes (0.45-μm pore size; Invitrogen). […] The membranes were then washed three times with 1×TBS-T, scanned, and integrated band intensities were calculated using an infrared imaging system (Odyssey; Li-Cor, Lincoln, Nebr.). […]
(In western blotting, separated proteins are transferred to a membrane and probed.)

B1: TGF-β2: activated transforming growth factor-β2 (R&D Systems) used to stimulate TM cells (protein, UniProt P61812 303-414, looked up)
Transforming growth factor …: ALDAAYCFRNVQDNCCLRPLYIDFKRDLGWKWIHEPKGYNANFCAGACPYLWSSDTQHSRVLSLYNTINPEASASPCCVSQDLEPLTILYYIGKTPKIEQLSNMIVKSCKCS
Regarding B1, under “2.5 ng/mL TGF-β2, at 30 minutes”, the “phospho-total AMPK ratio difference vs zero time point” value is on record as “no longer significant”. In addition, for the setting “2.5 ng/mL TGF-β2, within 15 minutes, human TM cells”, the “decrease of phospho-total AMPK ratio, normalized to the zero time point” value is 30%.
